Experimental data as given in publication PMC2724274 (Nucleic Acids Research, 2009).

Target: the molecule itself
Assay: crystal structure

B1: CrgA (contact-regulated gene A), full-length, from Neisseria meningitidis (natural protein, UniProt Q9JXW7 1-299, looked up)
chain: MKTNSEELTVFVQVVESGSFSRAAEQLAMANSAVSRIVKRLEEKLGVNLLNRTTRQLSLTEEGAQYFRRAQRILQEMAAAETEMLAVHEIPQGVLSVDSAMPMVLHLLAPLAAKFNERYPHIRLSLVSSEGYINLIERKVDIALRAGELDDSGLRARHLFDSRFRVIASPEYLAKHGTPQSTEELAGHQCLGFTEPGSLNTWAVLDAQGNPYKISPHFTASSGEILRSLCLSGCGIVCLSDFLVDNDIAEGKLIPLLAEQTSDKTHPFNAVYYSDKAVNLRLRVFLDFLVEELGNNLCG
- stoichiometry N: 8
